Earlier results on one substance are cited in article PMC11187271.

The series addresses Galectin-1 (Homo sapiens) (UniProt P09382).
UniProt P09382, sequence (P09382 2-135): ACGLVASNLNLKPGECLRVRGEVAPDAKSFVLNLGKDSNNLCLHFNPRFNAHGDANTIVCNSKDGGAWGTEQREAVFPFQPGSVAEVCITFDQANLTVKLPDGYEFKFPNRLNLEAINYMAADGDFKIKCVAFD

The Kd is the equilibrium constant for the complex coming apart. For Thymosin alpha-1 (from UniProt P06454), the dissociation constant (Kd) was 46 µM.
